Results taken from patent US20050064384A1, “Recruitment of mst1 or mst2 protein kinase to induce apoptosis in eukaryotic cells” (priority 2001, published 2005).

Target: FLAG-tagged wild type (wt) MST1 (mouse) (UniProt Q9JI11)
Test: cell-based or functional assay

Chain of FLAG-tagged wild type (wt) MST1 (mouse) (Q9JI11 other isoform, or with tags, fused parts or gaps limits assumed): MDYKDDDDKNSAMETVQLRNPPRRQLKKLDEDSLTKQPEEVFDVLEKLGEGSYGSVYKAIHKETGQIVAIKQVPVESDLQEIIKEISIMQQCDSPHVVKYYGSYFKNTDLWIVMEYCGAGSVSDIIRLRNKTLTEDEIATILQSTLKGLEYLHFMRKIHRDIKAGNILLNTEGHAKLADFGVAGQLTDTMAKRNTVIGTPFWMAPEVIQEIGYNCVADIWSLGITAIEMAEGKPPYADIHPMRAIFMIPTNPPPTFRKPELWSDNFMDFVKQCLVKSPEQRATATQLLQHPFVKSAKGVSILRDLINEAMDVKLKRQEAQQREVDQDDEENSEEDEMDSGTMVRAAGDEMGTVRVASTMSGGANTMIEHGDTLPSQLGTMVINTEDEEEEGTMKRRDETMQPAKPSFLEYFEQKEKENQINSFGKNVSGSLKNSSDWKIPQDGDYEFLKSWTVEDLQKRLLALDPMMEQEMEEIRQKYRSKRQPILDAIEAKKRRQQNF

fraction of annexin V-stained NIH3T3 cells: 50%
Sequence: NORECAAX (NORE fused to the Ki-Ras4B membrane-association CAAX segment) (from UniProt Q5EBH1 1-413)
